Source: US20190112392A1
Numbering of substitutions follows the chain as printed.

B1: T017000107 (protein)
chain: EVQLVESGGGLVQAGGSLRLSCAASGRTFSSYVMGWFRQATGKEREFVATIAWDSGSTYYADSVKGRFTISRDNAKNTVHLQMNSLKPEDTAVYYCAASYNVYYNNYYYPISRDEYDYWGQGTLVTVSSGGGGSGGGGSGGGGSGGGGSGGGGSGGGGSGGGGSEVQLVESGGGSVQAGGSLRLSCAASGDTYGSYWMGWFRQAPGKEREGVAAINRGGGYTVYADSVKGRFTISRDTAKNTVYLQMNSLRPDDTADYYCAASGVLGGLHEDWFNYWGQGTLVTVSSGGGGSGGGGSGGGGSGGGGSGGGGSGGGGSGGGGSEVQLVESGGGLVQPGGSLRLSCVASGDVHKINFLGWYRQAPGKEREKVAHISIGDQTDYADSAKGRFTISRDESKNMVYLQMNSLKPEDTAVYFCRAFSRIYPYDYWGQGTLVTVSSGAADYKDHDGDYKDHDIDYKDDDDKGAAHHHHHH
B2: T0170055A02 (VHH, not shown: small tags and cut ends)
VHH: EVQLVESGGGLVQPGGSLRLSCAASGDVHKINILGWYRQAPAKEREMVAHITIGDATDYADSAKGRFTISRDEAKNMVYLQMNSLKPEDTAVYFCRAYSRIYPYNYWGQGTLVTVSS
B3: T0170056G05 (VHH, not shown: small tags and cut ends)
VHH: B2 VHH with A23V, I33F, A42G, M47K, T52S, A56Q, A74S, Y98F, N105D
B4: T0170068G05 (VHH, not shown: small tags and cut ends)
VHH: VQLVEESGGGLVQPGGSLRLSCITSGETFKINIWGWYRQAPGKQRELVASLTIGGATNYADSVKGRFTISEDSAKNTVYLQMNSLKPEDTAVYFCNAKSRIYPYDYWGRGTQVTVSS
B5: T0170061G01 (VHH, not shown: small tags and cut ends)
VHH: EVQLVESGGGLVQPGGSLRLSCAASGEIGRINFYRWYRQAPGNQREVVATITIADKTDYADSAKGRFTISRDESRNMVYLQMSSLKPEDTAVYFCHAGSRLYPYDYWGQGTQVTVSS
B6: T017000055 (bispecific antibody)
chain: EVQLVESGGGLVQPGGSLRLSCTFSGGTFSSYTMGWFRQAPGKEREFVAEVRWGGVTTYSNSLKDRFSISEDSVKNAVYLQMNSLKPEDTAVYYCAAVRQMYMTVVPDYWGQGTLVTVSSGGGGSGGGGSGGGGSGGGGSGGGGSGGGGSGGGGSEVQLVESGGGLVQPGGSLRLSCAASGDVHKINILGWYRQAPAKEREMVAHITIGDATDYADSAKGRFTISRDEAKNMVYLQMNSLKPEDTAVYFCRAYSRIYPYNYWGQGTLVTVSSGAADYKDHDGDYKDHDIDYKDDDDKGAAHHHHHH
B7: T017000042 (bispecific antibody)
chain: EVQLVESGGGLVQPGGSLRLSCAASGDVHKINILGWYRQAPAKEREMVAHITIGDATDYADSAKGRFTISRDEAKNMVYLQMNSLKPEDTAVYFCRAYSRIYPYNYWGQGTLVTVSSGGGGSGGGGSGGGGSGGGGSGGGGSGGGGSGGGGSEVQLVESGGGLVQPGGSLRLSCTFSGGTFSSYTMGWFRQAPGKEREFVAEVRWGGVTTYSNSLKDRFSISEDSVKNAVYLQMNSLKPEDTAVYYCAAVRQMYMTVVPDYWGQGTLVTVSSGAADYKDHDGDYKDHDIDYKDDDDKGAAHHHHHH
B8: T017000076 (bispecific antibody)
chain: B6 chain with A178V, I188F, A197G, M202K, T207S, A211Q, A229S, Y253F, N260D
B9: T017000074 (bispecific antibody)
chain: B7 chain with A23V, I33F, A42G, M47K, T52S, A56Q, A74S, Y98F, N105D
B10: T017000068 (bispecific antibody)
chain: EVQLVESGGGLVQPGGSLRLSCTFSGGTFSSYTMGWFRQAPGKEREFVAEVRWGGVTTYSNSLKDRFSISEDSVKNAVYLQMNSLKPEDTAVYYCAAVRQMYMTVVPDYWGQGTLVTVSSGGGGSGGGGSGGGGSGGGGSGGGGSGGGGSGGGGSEVQLVESGGGLVQPGGSLRLSCITSGETFKINIWGWYRQAPGKQRELVASLTIGGATNYADSVKGRFTISEDSAKNTVYLQMNSLKPEDTAVYFCNAKSRLYPYDYWGQGTLVTVSSGAADYKDHDGDYKDHDIDYKDDDDKGAAHHHHHH
B11: T017000031 (bispecific antibody)
chain: EVQLVESGGGLVQPGGSLRLSCITSGETFKINIWGWYRQAPGKQRELVASLTIGGATNYADSVKGRFTISEDSAKNTVYLQMNSLKPEDTAVYFCNAKSRLYPYDYWGQGTLVTVSSGGGGSGGGGSGGGGSGGGGSGGGGSGGGGSGGGGSEVQLVESGGGLVQPGGSLRLSCTFSGGTFSSYTMGWFRQAPGKEREFVAEVRWGGVTTYSNSLKDRFSISEDSVKNAVYLQMNSLKPEDTAVYYCAAVRQMYMTVVPDYWGQGTLVTVSSGAADYKDHDGDYKDHDIDYKDDDDKGAAHHHHHH
B12: T017000051 (bispecific antibody)
chain: EVQLVESGGGLVQPGGSLRLSCTFSGGTFSSYTMGWFRQAPGKEREFVAEVRWGGVTTYSNSLKDRFSISEDSVKNAVYLQMNSLKPEDTAVYYCAAVRQMYMTVVPDYWGQGTLVTVSSGGGGSGGGGSGGGGSGGGGSGGGGSGGGGSGGGGSEVQLVESGGGLVQPGGSLRLSCAASGEIGRINFYRWYRQAPGNQREVVATITIADKTDYADSAKGRFTISRDESRNMVYLQMSSLKPEDTAVYFCHAGSRLYPYDYWGQGTLVTVSSGAADYKDHDGDYKDHDIDYKDDDDKGAAHHHHHH
B13: T017000038 (bispecific antibody)
chain: EVQLVESGGGLVQPGGSLRLSCAASGEIGRINFYRWYRQAPGNQREVVATITIADKTDYADSAKGRFTISRDESRNMVYLQMSSLKPEDTAVYFCHAGSRLYPYDYWGQGTLVTVSSGGGGSGGGGSGGGGSGGGGSGGGGSGGGGSGGGGSEVQLVESGGGLVQPGGSLRLSCTFSGGTFSSYTMGWFRQAPGKEREFVAEVRWGGVTTYSNSLKDRFSISEDSVKNAVYLQMNSLKPEDTAVYYCAAVRQMYMTVVPDYWGQGTLVTVSSGAADYKDHDGDYKDHDIDYKDDDDKGAAHHHHHH

Tests used:
[1] = molecular target: EGFR and CEACAM5 co-expressed on LS174T and LoVo cells (UniProt P00533); assay: cell-based or functional assay
[2] = molecular target: EGFR and CEACAM5 co-expressed on LS174T and LoVo cells (UniProt P00533); assay: flow cytometry, LS174T cells
[3] = molecular target: EGFR and CEACAM5 co-expressed on LS174T and LoVo cells (UniProt P00533); assay: flow cytometry, LoVo cells
[4] = molecular target: EGFR and CEACAM5 co-expressed on LS174T and LoVo cells (UniProt P00533); assay: flow cytometry, LS174T cells; LS174T cells
[5] = molecular target: soluble recombinant human TCR alpha/beta (2XN9)-zipper protein (human); assay: BLI (Octet RED384), immobilized human sTCR(2XN9)-zipper, 1:1 model
[6] = molecular target: human TCR(2IAN)/CD3 expressed on HEK293H cells (human); assay: flow cytometry, HEK293H human TCR(2IAN)/CD3 cells
[7] = molecular target: soluble recombinant human TCR alpha/beta (2XN9)-zipper protein (human); assay: ELISA, coated soluble human TCR(2XN9)-zipper
[8] = molecular target: human TCR(2XN9)/CD3 expressed on CHO-K1 cells (human); assay: flow cytometry, CHO-K1 human TCR(2XN9)/CD3 cells

Binder | MCF at 1 µM [6] | EC50 [8] | further results
B1 | – | – | IC50, xCELLigence human T cell mediated killing of LS174T cells, E:T 15, 30-40 h [1]: 10 nM; IC50, xCELLigence human T cell mediated killing of LS174T cells, E:T 15, 50-60 h [1]: 5.3 nM; IC50, xCELLigence human T cell mediated killing of LoVo cells, E:T 15, 30-40 h [1]: 300 pM; IC50, xCELLigence human T cell mediated killing of LoVo cells, E:T 15, 50-60 h [1]: 61 pM; Top [2]: 64600; EC50 [3]: 3.2 nM; Top [3]: 88600; EC50 [4]: 11 nM
B2 | 91200 MCF | – | kon [5]: 49000 M⁻¹ s⁻¹
B3 | 86500 MCF | – | kon [5]: 50000 M⁻¹ s⁻¹
B4 | 31200 MCF | 12 nM | EC50 [7]: 16 nM; EC50 [6]: > 100 nM
B5 | 10000 MCF | 31 nM | EC50 [7]: 52 nM; EC50 [6]: > 100 nM
B6 | – | 110 nM | –
B7 | – | 17 nM | –
B8 | – | 78 nM | –
B9 | – | 16 nM | –
B10 | – | 190 nM | –
B11 | – | 20 nM | –
B12 | – | 460 nM | –
B13 | – | 17 nM | –
